# T1: GST-fused BRI1 kinase domain (Arabidopsis, UniProt O22476 814-1196)
# T1 construct: BRASSINOSTEROID … 1 (BRI1), Arabidopsis, kinase domain, residues 814-1196; also called GST-BRI1-KD; BRI1-KD; source: E. coli (pGEX-4T-1); not shown: GST, N-terminal, kept
# T1 sequence (looked up): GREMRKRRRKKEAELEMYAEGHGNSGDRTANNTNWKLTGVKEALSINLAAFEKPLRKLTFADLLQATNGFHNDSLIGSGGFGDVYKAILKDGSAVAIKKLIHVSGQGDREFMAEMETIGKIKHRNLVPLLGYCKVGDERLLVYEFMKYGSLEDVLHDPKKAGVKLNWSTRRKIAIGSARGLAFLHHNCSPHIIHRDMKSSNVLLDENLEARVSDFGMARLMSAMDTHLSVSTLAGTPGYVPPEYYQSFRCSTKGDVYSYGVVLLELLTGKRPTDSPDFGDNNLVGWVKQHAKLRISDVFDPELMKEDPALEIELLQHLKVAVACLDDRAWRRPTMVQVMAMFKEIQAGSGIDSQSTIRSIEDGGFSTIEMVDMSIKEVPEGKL
# Molecular target: T1, GST-fused BRI1 kinase domain
# Assay: pull-down; about 15 μg GST fusion with about 30 μg MBP fusion in 900 μL TGH buffer (10% glycerol, 1% Triton X-100, 1.5 mM MgCl2, 150 mM NaCl, 1 mM EGTA, 50 mM HEPES, pH 7.5); 30 μL GST beads, about 1 h; immunoblot with anti-MBP and anti-GST
# Conditions: both partners purified
row,binding result,Binder
1,binds,"MBP-AGG2 (natural protein, Arabidopsis, UniProt Q93V47 1-100, looked up, AGG2, Arabidopsis G protein gamma subunit 2; also called G protein gamma subunit; source: E. coli (pMAL-c2); not shown: MBP, N-terminal, kept) MEAGSSNSSGQLSGRVVDTRGKHRIQAELKRLEQEARFLEEELEQLEKMDNASASCKEFLDSVDSKPDPLLPETTGPVNATWDQWFEGPKEAKRCGCSIL"
2,binds,"MBP-AGG3 (natural protein, Arabidopsis, UniProt Q6AWT8 1-251, looked up, AGG3, Arabidopsis G protein gamma subunit 3; also called G protein gamma subunit; source: E. coli (pMAL-c2); not shown: MBP, N-terminal, kept) MSAPSGGGEGGGKESAAGGVSSSSLAPSSLPPPRPKSPPEYPDLYGKRREAARVQMLEREIGFLEGEIKFIEGVQPASRCIKEVSDFVVANSDPLIPAQRKSRRSFRFWKWLCGPCLSLVSFCCCCQSKCSCHLRKPKCCNCTSCSCIGSKCCDGSCCSNICCCPRLSCPSCSCFRGCWCSCPDMSCCIPSCFRSCSCTRPSCLNKKKSSCCSCNCKIRWSSCFSCPKVRLCSCCFCNCKNLCSNPCCLAF"

# The remaining lines, values behind:
row,Binder,binding result
1,"MBP-AGG1 (natural protein, Arabidopsis, UniProt Q9FDX9 1-98, looked up, AGG1, Arabidopsis G protein gamma subunit 1; also called G protein gamma subunit; source: E. coli (pMAL-c2); not shown: MBP, N-terminal, kept) MREETVVYEQEESVSHGGGKHRILAELARVEQEVAFLEKELKEVENTDIVSTVCEELLSVIEKGPDPLLPLTNGPLNLGWDRWFEGPNGGEGCRCLIL",binds
2,"MBP-AGB1 (natural protein, Arabidopsis, UniProt P49177 1-377, looked up, AGB1, Arabidopsis G protein beta subunit; Cloned into the EcoR I and Pst I sites of pMAL-c2; also called G protein beta subunit; source: E. coli (pMAL-c2); not shown: MBP, N-terminal, kept) MSVSELKERHAVATETVNNLRDQLRQRRLQLLDTDVARYSAAQGRTRVSFGATDLVCCRTLQGHTGKVYSLDWTPERNRIVSASQDGRLIVWNALTSQKTHAIKLPCAWVMTCAFSPNGQSVACGGLDSVCSIFSLSSTADKDGTVPVSRMLTGHRGYVSCCQYVPNEDAHLITSSGDQTCILWDVTTGLKTSVFGGEFQSGHTADVLSVSISGSNPNWFISGSCDSTARLWDTRAASRAVRTFHGHEGDVNTVKFFPDGYRFGTGSDDGTCRLYDIRTGHQLQVYQPHGDGENGPVTSIAFSVSGRLLFAGYASNNTCYVWDTLLGEVVLDLGLQQDSHRNRISCLGLSADGSALCTGSWDSNLKIWAFGGHRRVI",binds

# Reference: paper PMC5906681, “BRI1 and BAK1 interact with G proteins and regulate sugar-responsive growth and development in Arabidopsis” (Nature Communications, 2018)
